Experimental data taken from publication PMC5173487 (Nature immunology, 2016).

Experiments:
[1] = target: T1, His-tagged EPRS (amino acids 1–196) (human (by GenBank NM_004446.2), UniProt P07814 1-196); assay: pull-down
T1 sequence (looked up): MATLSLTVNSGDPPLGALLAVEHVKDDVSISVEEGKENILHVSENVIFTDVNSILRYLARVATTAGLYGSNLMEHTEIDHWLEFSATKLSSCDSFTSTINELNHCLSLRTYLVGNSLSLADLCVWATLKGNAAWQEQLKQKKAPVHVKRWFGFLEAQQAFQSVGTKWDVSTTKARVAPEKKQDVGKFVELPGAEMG

[2] = target: GST-fused MAVS (amino acids 460–540) (UniProt Q7Z434 460-540); assay: pull-down
Sequence of GST-fused MAVS (amino acids 460–540) (Q7Z434 460-540): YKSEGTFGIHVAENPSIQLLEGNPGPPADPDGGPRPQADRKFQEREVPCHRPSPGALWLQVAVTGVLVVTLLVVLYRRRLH

B1: GST-fused PCBP2 (amino acids 11–82) (domain or fragment, UniProt Q15366 11-82, looked up)
chain: NVTLTIRLLMHGKEVGSIIGKKGESVKKMREESGARINISEGNCPERIITLAGPTNAIFKAFAMIIDKLEED
binding result [1]: binds

B2: His-tagged PCBP2 (amino acids 11–82) (domain or fragment, UniProt Q15366 11-82, looked up)
chain: NVTLTIRLLMHGKEVGSIIGKKGESVKKMREESGARINISEGNCPERIITLAGPTNAIFKAFAMIIDKLEED
binding result [2]: binds
